# Assay results as given in the supplement of paper PMC10567573.
# ± gives the standard deviation.
# Assay: protein stability index of a GFP-peptide fusion (GPS, HEK-293T) (PSI 1-6); higher = more stable
# Conditions: c terminus: a fixed tail appended
# 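Further: 24-mer peptide tiles fused after GFP, lentivirally expressed, FACS-sorted into six equal bins by GFP/DsRed ratio, decoded by Illumina sequencing, PSI is the read-weighted mean bin number.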
Sequence,protein stability index (treatment: DMSO),"protein stability index (treatment: MLN4924 1 uM, 8 h)"
YEYDHWDAAIHGFRETEKSRWSEA [ALKBH7],3.64 ± 0.38,3.73 ± 0.22
SASLEVVKKDHVALQVPRGKEDST [CBY2],5.4 ± 0.16,5.35 ± 0.23
LAARVIVNHRIYYKGHIPEKLETF [FEM1C],2.82 ± 0.99,2.47 ± 0.52
SLQQMQELSNILNLSYKQVKTWFQ [NANOGP8],2.27 ± 0.34,2.16 ± 0.12
RTYKQRFLFAKLFSHITSARKARK [PHTF1],2.17 ± 0.14,2.55 ± 0.58
AALRIANCKLFRLQLQQGLFRIRV [GAN],2.8 ± 0.57,2.58 ± 0.51
IQFIKLFGMAKIDNLLQEMLLGGS [HNF4A],2.84 ± 0.72,3.11 ± 0.61
STDSGFCLDSPGPLDSKENLENPM [CDC25A],5.32 ± 0.12,5.27 ± 0.14
ASSWKKQVSHDFLETRFKIQQLLE [FBXO34],2.89 ± 0.31,2.71 ± 0.41
QLNGTANDTAGPELPDPLGGLLDE [NFE2L1],5.11 ± 0.32,5.37 ± 0.32
ELDDTLKYSFLQFDPAPRRGEPHV [PPP2CA],3.2 ± 0.32,3.41 ± 0.31
RDGEPEPMQKLQDLVNRTPWKKCC [RBBP5],4 ± 0.21,4.04 ± 0.21
VLKTRMALRKTGQYSGMLDCARRI [SLC25A25],2.53 ± 0.17,2.78 ± 0.18
LLPDGRHAVVEVEDVPLAAKLVDL [TAF7L],4.28 ± 0.3,4.22 ± 0.18
LLGRERDRVQVERDGLAEDLAALK [PRPH],4.2 ± 0.26,4.37 ± 0.18
EFFAVTRFLVGMMNGGMSLVAFVL [SLC22A15],2.22 ± 0.24,2.2 ± 0.38
EDAEGEEEEEEEEEEEDDLSELPP [FKBP8],5.67 ± 0.19,5.56 ± 0.18
VTYMNMTAYNKGRLQSSFWIVDKQ [PLD5],2.39 ± 0.6,2.33 ± 0.39
KFFFKSMDDDFGVVKEEISDDNAK [DVL3],4.76 ± 0.19,4.81 ± 0.099
QMLRKTVKDEAHQAQKDPKKDRPL [PPP2R5C],4.89 ± 0.1,4.97 ± 0.24
ALRMATWNQILDPWVYILLRKAVL [PTGFR],2.98 ± 0.68,2.43 ± 0.41
VNCISPLKYFSDFRPYFTIHDSEF [DENND6A],2.27 ± 0.68,1.92 ± 0.19
VDYPLHDLVLHTNYTATVRGLRGP [TNXB],2.71 ± 0.19,2.81 ± 0.24

Sequence,protein stability index (treatment: DMSO),"protein stability index (treatment: MLN4924 1 uM, 8 h)"
DNHNLIERRRRFNINDRIKELGTL [TFE3],3.33 ± 0.13,3.69 ± 0.22
EKLNIPWNHIRLQRTAKGKPVLAK [AASDHPPT],3.16 ± 0.2,3.05 ± 0.33
KLVKKHAAQRSTETALYRKMLGNP [FKBP8],2.95 ± 0.47,3.04 ± 0.25
SARMSAGLPGPEAARSGDAAANKL [PLEKHN1],5.22 ± 0.085,4.92 ± 0.18
SLRSSSSKLAQLTLEQILEHLDNL [INTS3],2.31 ± 0.2,2.55 ± 0.26
KTKTSEYPIIFVYYLRKGKKINSN [SPANXN3],2.37 ± 0.59,2.01 ± 0.49
RHSISMPAMRNSPTFKSFEERVET [TPD52L1],4.66 ± 0.18,4.75 ± 0.42
YALQMEQLNGILLHLESELAQTRA [KRT18],2.24 ± 0.18,2.43 ± 0.29
IHHLVLTASDGGDPLRSGTVLVSV [PCDHGA10],2.97 ± 0.45,2.79 ± 0.34
PRLHGAKAILDAEPGPRPALQPSP [TBC1D10A],4.81 ± 0.19,4.94 ± 0.17
QDSPGPREAVSQLRELCRLWLRPE [ZNF24],3.11 ± 0.32,2.9 ± 0.24
YQNHKITQLKIENNPFAKGFRGSD [TBX5],2.96 ± 0.5,3.55 ± 0.61
GVHVRRTDKVGTEAAFHPIEEYMV [FUT8],3.36 ± 0.29,3.58 ± 0.27
CVKLCTGHEYAAKIINTKKLSARD [CAMK2B],3.14 ± 0.18,3.18 ± 0.28
VLTDSEGWILIDRCGKHFGTILNY [KCTD10],2.37 ± 0.59,2.31 ± 0.2
ADSSAQAAAQAPENFQEGKDMSES [TAF7L],5.72 ± 0.14,5.49 ± 0.39
PTWWPLPTQVPAAEDYLTWKEWGF [SPAG8],2.58 ± 0.18,2.35 ± 0.35
DFSGLTLDGALRTFLKAFPLMGET [PSD2],1.91 ± 0.24,2.05 ± 0.34
KDEDLDLFPASPTREAHRESSVPV [FBF1],5.11 ± 0.33,5.02 ± 0.35
TIRSGISPNLNVVDGRLTYPTCGI [SASS6],2.86 ± 0.42,3.02 ± 0.26
NKVELQAKVESMDQEIKFFRCLFE [KRT71],2.52 ± 0.51,2.48 ± 0.38
SGFWGVARHFNYVGDLMGSLAYCL [DHCR7],2.11 ± 0.48,2.07 ± 0.11
RDSSFLISGGFDRTVAIWDVAEGY [WDR88],2.71 ± 0.16,2.86 ± 0.23

Sequence,protein stability index (treatment: DMSO),"protein stability index (treatment: MLN4924 1 uM, 8 h)"
KLGLHDNHWVPACHSFNRAIHKKA [FBXO34],2.79 ± 0.14,2.91 ± 0.18
MATPPFRLIRKMFSFKVSRWMGLA [CCDC70],2.51 ± 0.48,2.22 ± 0.099
EATPRSLRASGSLCGPHAKAPYLC,2.77 ± 0.26,2.82 ± 0.23
PGPPSAPPPPPKEGHQEGLVELPA [SCNN1D],5.46 ± 0.23,5.47 ± 0.17
APKPDAAPSIDLFSTDAFSSPPQG [SNAP91],4.73 ± 0.14,4.84 ± 0.14
SCVIPLRHGGLSLVQTTDFFYPLV [SEPHS2],2.42 ± 0.34,2.31 ± 0.45
HEKIGFPAARRCHSCVQIKNDVFI [KLHDC10],1.89 ± 0.31,1.73 ± 0.27
GLPPSGSWQDLKDHMREAGDVCYA [SRSF1],3.65 ± 0.25,3.83 ± 0.48
YSDGADDTFAAYTREQLYQAIFHA [MCOLN1],2.54 ± 0.23,2.52 ± 0.37
IYQTLFLNGENSDIKICALGEEWS [GMCL1],2.26 ± 0.18,2.16 ± 0.19
DPGQDLVPKQAIQVQEADEAGWGG [DLX1],5.18 ± 0.28,5.22 ± 0.4
AVRCASGRCTVRDFIHRHCQDQNV [SDE2],2.59 ± 0.41,2.39 ± 0.5
LPSENLGKEPLDPDPSHSPSDKVG [TOR1AIP2],5.42 ± 0.22,5.494 ± 0.038
SSNLGQHQRIHTGEKPFECNECGK [ZNF232],4.78 ± 0.22,5.01 ± 0.19
VRVNDGGGSHPSRPNSRHTPSFSG [VDR],3.72 ± 0.14,3.86 ± 0.19
NKRVGMYLEGFDPFNQSTFNNVVE [DLC1],3.09 ± 0.24,3.23 ± 0.2
DEKINIYCLTCEVPTCSMCKVFGI [TRIM63],2.43 ± 0.14,2.45 ± 0.32
GMLCSFRIPGAWSCAWSLNIQANN [DCAF4],2.69 ± 0.8,2 ± 0.29
FLDIDTSAVEKEPARAPPEPPHNL [SERTAD3],4.84 ± 0.13,4.98 ± 0.45
THLLKQGRSSMGTGLSGGKRPSQE [CRY1],4.35 ± 0.18,4.53 ± 0.33
VAPPAKQAQQKKAPAKKANSTTTA [BRD3],5.11 ± 0.26,5.26 ± 0.13
EKINKIKWLPQQNAAHSLLSTNDK [PPP2R2C],4.07 ± 0.19,4.15 ± 0.11
SCYQVYCGRYINGHMLQHHGNSGH [HDAC6],2.49 ± 0.54,2.21 ± 0.16

Sequence,protein stability index (treatment: DMSO),"protein stability index (treatment: MLN4924 1 uM, 8 h)"
DPTGPAGLGRPTPGLSQGPGKETL [EHMT1],5.17 ± 0.15,5.09 ± 0.13
SASASTTTTVTAVTAEVDLFGDAF [SNAP91],4.28 ± 0.28,4.28 ± 0.29
LERQNQEYQVLLDVKARLEGEIAT [KRT36],3.93 ± 0.077,4.02 ± 0.2
ARRYAGPLHHQTQRFRLDNLLNMA [ELAVL3],2.78 ± 0.35,2.75 ± 0.31
QFLNDQISVQNYKQVCKIAALHGL [KLHL14],2.14 ± 0.28,2.17 ± 0.16
DQFTQVFLESQGIELNPPEKMALD [EFHC1],4.662 ± 0.027,4.78 ± 0.24
SVTLEDVTPKKSPPPKTNLTPGQS [FAN1],5.11 ± 0.18,5.24 ± 0.34
PKKGPAPSLSPGSSCVKYLIFLSN [TSPAN10],2.59 ± 0.64,2.43 ± 0.21
NSHVYNGRTHQWKPLYPDDYVHIS [ADAMTSL2],2.78 ± 0.31,2.8 ± 0.34
LGETPENSNLEEPLNPKPHKKKSP [ZNF449],5.41 ± 0.38,5.47 ± 0.12
DLIDNLKEAQYIRTERVEQAFRAI [PCMTD1],2.29 ± 0.17,2.27 ± 0.14
HRYIAYMANQEAAIQAFLDKCSAP [IQUB],2.51 ± 0.2,2.38 ± 0.46
APSFSSYLYFLFCPTLIYRETYPR [SOAT2],2.99 ± 0.17,2.7 ± 0.44
LNQGSVFQEYDTDCEVFRQRFRQF [ZNF449],2.98 ± 0.27,3.19 ± 0.12
TQVKVVKFSYMWTINNFSFCREEM [SPOPL],2.65 ± 0.92,2.77 ± 0.72
EAPSTASSTPDSTEGGNDDSDFRE [RTN2],5.57 ± 0.35,5.63 ± 0.23
EVEELDNWQPAVPLMHMLHLSGAL [SPATS1],2.18 ± 0.27,2.16 ± 0.35
SQLPQVLHVSLGQKLVAAYVLGLL [MOSPD3],3.26 ± 0.94,2.75 ± 1.2
RTNDGKITYPPGVKEISDKISKEE [PDS5B],5.02 ± 0.19,5.197 ± 0.006
DALRNLKCGSGARGGDGEVASAPL [TRADD],4.15 ± 0.38,4.05 ± 0.3
